Laboratory results reported in patent US20230331817A1 (The Regents of the University of California, priority 2020, published 2023).

Key:
[1] = human, in vivo; cited from earlier work
[2] = tested on: plasmin induced lysis of clot formed in whole blood; assay: Thromboelastography, plasmin induced clot lysis in whole blood; type: biochemical, human; conditions: for G / LY30 / LY60 / MA: NHB + […] plasmin
Procedure: Plasmin and CaCl2) were added last to initiate simultaneous clotting and fibrinolysis. […] The thromboelastograph was calibrated each day and each inhibitor concentration was tested in duplicate. TEG Analytical Software (version 4.2.2; Haemonetics Corporation, Braintree, MA) was used to calculate the time to clot initiation (R), maximal clot strength (maximal amplitude (MA), which was directly related to the shear elastic modulus strength, G), and percent lysis 60 minutes after MA (LY60) (42).

HUVEC [3] = type: cell-based, human
Procedure: (§1) Resazurin reduction assay (Fisher Scientific) was used to evaluate the potential cytotoxicity of antifibrinolytic agents toward primary human endothelial cells and skin fibroblasts. Phosphate buffer that was used to dissolve the samples was included as negative control. The assay is based on reduction of the non-fluorescent dye resazurin, to the highly fluorescent resorufin by viable cells. […] Briefly, cells in 96-well cell culture plates were treated with different concentrations of antifibrinolytic compounds (as described above). After 24 hours resazurin reagent was added to each well and the plates were incubated at 37° C. for 4 hours. Fluorescence was measured by the FLUOstar Omega Microplate Reader (BMG Labtech) using an excitation wavelength of 544 nm and an emission wavelength of 590 nm. Each assay was done in duplicate, with three replicates each. The viability was evaluated based on comparison with untreated cells.

[4] = tested on: primary human dermal skin fibroblasts; assay: Resazurin reduction (alamarBlue) viability assay, skin fibroblasts; type: cell-based
Procedure: as §1

HUVEC [5] = conditions: 24 hours; 30 μM KD1TM, 30 μM BPTI, 60 mM EACA, 30 mM TXA
Excerpt: (§2) Primary human pooled umbilical vein endothelial cells (HUVEC) were obtained from ATCC. The cells were maintained in Vascular Cell Basal Medium (ATCC), supplemented with the Endothelial Cell Growth Kit-BBE (ATCC) and Penicillin-Streptomycin-Amphotericin B (ATCC). Primary human dermal skin fibroblasts were obtained from LONZA and maintained in Fibroblast Basal Medium (FBMTM, LONZA), supplemented with a cocktail of growth factors, fetal bovine serum and antibiotics (FGMTM-2 SingleQuots™, LONZA). All cells were maintained in a humidified 5% C02 atmosphere at 37° C. and were passaged once they reached 80% confluence. All experiments were performed with cells in the logarithmic growth phase.
(§3) For toxicity studies, cells were seeded into 96-well or 24-well cell culture plates at 3,500 cells/cm2 and were used for experiments once they reached 80% confluence.
(§4) Cell toxicity and cell death was evaluated with the CellTox™ Green Cytotoxicity Assay (Promega). This assay measures changes in membrane integrity that occur as a result of cell death. The dye used in the system is excluded from viable cells but binds to DNA in compromised cells, which results in a fluorescent signal. We measured cell death in HUVEC and primary fibroblasts treated with antifibrinolytic agents at 4 concentrations (as indicated above) with triplicates per concentration in 24-well plates after 24 hours of exposure. Hoechst (Thermo Fisher Scientific) was used to stain all nuclei. Images of cells were captured using an inverted microscope (Nicon; Edipse T2000 TE). Green fluorescent cells (FITC filter) and Hoechst stained cells (DAPI filter) were counted using Image J software.

[6] = tested on: primary human dermal skin fibroblasts; conditions: 24 hours; 30 μM KD1TM, 30 μM BPTI, 60 mM EACA, 30 mM TXA
Excerpt: as §2, §3, §4

human plasmin [7] = biological target: T1, human plasmin (human, UniProt P00747 97-810); assay: cell-based or functional assay
T1 sequence (P00747 97-810 limits assumed): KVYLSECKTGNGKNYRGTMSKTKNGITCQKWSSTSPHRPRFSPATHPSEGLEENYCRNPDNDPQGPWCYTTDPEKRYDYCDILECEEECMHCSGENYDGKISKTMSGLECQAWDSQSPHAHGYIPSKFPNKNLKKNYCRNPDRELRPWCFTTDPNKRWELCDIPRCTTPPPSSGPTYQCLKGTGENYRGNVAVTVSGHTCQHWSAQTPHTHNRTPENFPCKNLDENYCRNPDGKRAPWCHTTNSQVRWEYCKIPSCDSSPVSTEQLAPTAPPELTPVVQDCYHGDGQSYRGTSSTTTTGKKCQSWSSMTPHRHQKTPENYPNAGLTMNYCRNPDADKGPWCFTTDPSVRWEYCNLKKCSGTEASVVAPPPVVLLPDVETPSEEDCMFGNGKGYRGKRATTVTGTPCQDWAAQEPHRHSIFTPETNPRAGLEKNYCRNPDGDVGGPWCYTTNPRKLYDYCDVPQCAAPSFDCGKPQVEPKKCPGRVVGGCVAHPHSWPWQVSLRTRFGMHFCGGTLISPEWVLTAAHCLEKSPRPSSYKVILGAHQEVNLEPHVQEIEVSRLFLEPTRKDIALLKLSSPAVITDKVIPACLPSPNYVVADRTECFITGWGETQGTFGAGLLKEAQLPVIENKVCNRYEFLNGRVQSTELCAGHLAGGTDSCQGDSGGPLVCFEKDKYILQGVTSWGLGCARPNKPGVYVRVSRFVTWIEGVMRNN

human plasmin [8] = biological target: T1, human plasmin; assay: amidolytic inhibition of 3 nM plasmin, tight-binding equation
Procedure: (§5) All reactions were carried out in TBS, pH 7.5 (50 mM Tris-HCL, pH 7.5, containing 100 mM NaCl), containing 0.1 mg bovine serum albumin/ml (TBS/BSA) and 2 mM Ca2+(TBS/BSA/Ca2+, pH 7.5). […] The inhibition constant, K* was determined using the nonlinear regression data analysis program Grafit.

human plasmin [9] = biological target: T1, human plasmin; assay: residual activity of 3 nM plasmin (percent fractional activity by the legend; the axis is labelled % Pm Inhibition), substrate S-2251 [A]
Plasma kallikrein (pKLK) = biological target: T2, Plasma kallikrein (pKLK) (Homo sapiens, UniProt P03952); assay: Protease inhibition assay, plasma kallikrein; type: biochemical; conditions: 1 nM kallikrein
T2 construct: Plasma kallikrein (pKLK) was from Enzyme Research Laboratories; purchased Enzyme Research Laboratories (South Bend, IN)
T2 sequence (P03952 20-390 limits assumed): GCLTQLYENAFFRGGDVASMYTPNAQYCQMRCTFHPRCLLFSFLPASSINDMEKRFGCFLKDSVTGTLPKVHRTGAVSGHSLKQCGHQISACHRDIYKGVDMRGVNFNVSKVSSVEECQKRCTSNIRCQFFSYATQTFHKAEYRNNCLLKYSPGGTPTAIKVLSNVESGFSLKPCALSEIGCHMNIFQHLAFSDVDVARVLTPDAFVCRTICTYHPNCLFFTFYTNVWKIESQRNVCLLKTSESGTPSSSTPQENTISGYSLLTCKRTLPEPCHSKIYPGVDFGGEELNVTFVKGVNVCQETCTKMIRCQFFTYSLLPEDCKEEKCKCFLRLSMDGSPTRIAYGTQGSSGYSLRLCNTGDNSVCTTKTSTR
T2 sequence (P03952 391-638 limits assumed): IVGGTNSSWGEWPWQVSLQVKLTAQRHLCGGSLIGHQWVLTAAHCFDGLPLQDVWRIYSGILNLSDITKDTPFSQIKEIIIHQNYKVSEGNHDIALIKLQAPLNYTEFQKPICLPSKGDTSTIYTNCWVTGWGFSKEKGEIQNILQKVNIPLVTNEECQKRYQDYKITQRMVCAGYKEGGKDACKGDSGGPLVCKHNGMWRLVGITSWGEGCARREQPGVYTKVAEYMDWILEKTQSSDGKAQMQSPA
Procedure: as §5
(§6) Ki values were obtained by correcting for the effect of substrate according to Beith (38), using equation 2, where (S) is substrate concentration and KM is specific for each enzyme.

human FXIa = biological target: T3, human FXIa (Homo sapiens, UniProt P03951); assay: Protease inhibition assay, factor XIa; type: biochemical; conditions: 1 nM FXIa
T3 construct: Purified human FXIa, thrombin (IIa) and plasmin were purchased; purchased Hematologic Technologies Inc (Essex Junction, VT)
T3 sequence (P03951 19-387 limits assumed): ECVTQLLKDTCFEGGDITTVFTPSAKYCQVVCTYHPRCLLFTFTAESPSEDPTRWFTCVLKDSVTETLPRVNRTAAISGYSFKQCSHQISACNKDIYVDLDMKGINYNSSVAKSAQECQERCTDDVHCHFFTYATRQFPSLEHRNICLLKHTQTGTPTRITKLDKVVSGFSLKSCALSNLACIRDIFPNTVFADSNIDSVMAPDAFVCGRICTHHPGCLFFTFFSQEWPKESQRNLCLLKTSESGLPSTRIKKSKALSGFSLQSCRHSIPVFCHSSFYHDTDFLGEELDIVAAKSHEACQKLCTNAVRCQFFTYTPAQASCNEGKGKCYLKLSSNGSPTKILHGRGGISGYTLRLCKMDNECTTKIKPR
T3 sequence (P03951 388-625 limits assumed): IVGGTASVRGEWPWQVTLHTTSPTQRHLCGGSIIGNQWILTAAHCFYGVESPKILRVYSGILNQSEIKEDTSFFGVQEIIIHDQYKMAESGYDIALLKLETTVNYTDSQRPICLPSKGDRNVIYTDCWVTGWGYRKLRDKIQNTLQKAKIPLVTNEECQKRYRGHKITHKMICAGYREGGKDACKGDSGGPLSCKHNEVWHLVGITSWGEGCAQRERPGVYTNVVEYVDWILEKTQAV
Procedure: as §5, §6

FVIIa/sTF = biological target: T4, FVIIa/sTF (Homo sapiens, UniProt P08709); assay: Protease inhibition assay, FVIIa/soluble tissue factor; type: biochemical; conditions: 20 nM FVIIa/sTF; read-out: Ki for Factor VIIa/soluble tissue factor
T4 construct: human factor VIIa (FVIIa) was prepared as described previously (34)
T4 sequence (P08709 213-466 limits assumed): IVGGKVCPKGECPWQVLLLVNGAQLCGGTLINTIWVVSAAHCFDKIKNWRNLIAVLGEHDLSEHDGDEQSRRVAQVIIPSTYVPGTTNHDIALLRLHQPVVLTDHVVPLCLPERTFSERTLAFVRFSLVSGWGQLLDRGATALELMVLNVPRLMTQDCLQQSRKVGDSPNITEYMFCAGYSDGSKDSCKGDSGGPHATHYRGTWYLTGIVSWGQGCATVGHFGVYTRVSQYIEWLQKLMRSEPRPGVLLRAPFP
T4 sequence (P08709 61-212 limits assumed): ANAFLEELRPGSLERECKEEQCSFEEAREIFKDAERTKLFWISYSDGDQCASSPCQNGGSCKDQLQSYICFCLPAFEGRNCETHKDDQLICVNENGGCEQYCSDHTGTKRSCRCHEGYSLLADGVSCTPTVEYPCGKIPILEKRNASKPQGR
T4 sequence (P13726 33-251 partner limits assumed): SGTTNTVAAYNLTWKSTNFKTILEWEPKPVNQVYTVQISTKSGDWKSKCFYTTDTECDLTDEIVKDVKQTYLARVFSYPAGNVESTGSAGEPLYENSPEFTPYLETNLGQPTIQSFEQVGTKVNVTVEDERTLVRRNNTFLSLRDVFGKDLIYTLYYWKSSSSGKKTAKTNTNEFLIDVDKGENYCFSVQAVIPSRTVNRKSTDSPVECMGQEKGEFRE
Procedure: as §5, §6

FXa = biological target: T5, FXa (Homo sapiens, UniProt P00742); assay: Protease inhibition assay, factor Xa; type: biochemical; conditions: 1 nM FXa
T5 construct: FXa, factor Xa
T5 sequence (P00742 235-488 limits assumed): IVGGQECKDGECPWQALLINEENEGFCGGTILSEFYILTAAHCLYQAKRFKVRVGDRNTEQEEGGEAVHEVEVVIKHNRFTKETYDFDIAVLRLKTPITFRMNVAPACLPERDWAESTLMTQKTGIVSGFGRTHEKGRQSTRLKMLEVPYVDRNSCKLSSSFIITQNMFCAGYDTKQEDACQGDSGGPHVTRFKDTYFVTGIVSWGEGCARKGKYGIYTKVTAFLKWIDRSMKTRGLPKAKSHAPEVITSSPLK
T5 sequence (P00742 41-179 limits assumed): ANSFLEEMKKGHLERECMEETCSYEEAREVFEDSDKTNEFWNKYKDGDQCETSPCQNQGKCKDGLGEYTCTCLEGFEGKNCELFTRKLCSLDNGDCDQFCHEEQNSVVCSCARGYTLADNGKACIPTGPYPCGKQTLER
Procedure: FIG. 2. Data from Equilibrium inhibition constants (Ki) of KD1Y11T/R15KL17R-KT with plasmin, FXIa, kallikrein (KLK), FVIIa/sTF and FXa. Percent activity of 3 nM human plasmin remaining in the presence of various concentrations (0.05 to 19.2 nM) of KD1Y11T/R15KL17R-KT (●) or BPTI (◯). And percent activity of 1 nM human FXIa (▴), 1 nM human kallikrein (●), 20 nM human FVIIa/sTF (Δ) and 1 nM FXa (♦) remaining in the presence of various concentrations (1 μM to 30 μM) of KD1Y11T/R15KL17R-KT.
Ki values for each inhibitor were calculated using the tight binding equations.

[10] = tested on: tPA-induced plasma clot fibrinolysis; assay: Fibrinolysis (clot lysis) assay in normal pooled plasma; type: biochemical; conditions: human NPP
Procedure: The method of Sperzel and Huetter (40) was followed with minor modifications as outlined earlier (32,41). Briefly, IIa was used to initiate fibrin formation in NPP and the lysis of the formed clot (fibrinolysis) was induced by simultaneous addition of tPA. Clot formation and lysis were monitored with a Molecular Devices microplate reader (SPECTRAmax 190) measuring the optical density at 405 nm. […] Two hundred twenty-five μL of this mixture was then added to 25 μL IIa and tPA in TBS/BSA containing 25 mM CaCl2). In the 250 μL final volume, concentration of IIa was 0.15 μg/ml and that of tPA was 1 μg/ml. Under control conditions (zero tPA and zero test compound), OD405 increased immediately indicating clotting followed by an extremely slow decrease representing fibrinolysis. As clotting was almost complete after 5 minutes, fibrinolysis induced by tPA was evaluated as a relative decrease of OD405 up to 60 minutes.
Addition of thrombin (IIa) to human normal pooled plasma (NPP) caused fibrin formation, which is reflected by the increase in OD405 (black curve, FIGS. 3A and 3B). Simultaneous addition of tPA caused initial clot formation followed by dissolution of fibrin induced by tPA-mediated conversion of plasminogen to plasmin (black curve with closed circles, FIGS. 3A and 3B); the midpoint of fibrinolysis was ˜8 min in each case. Both antifibrinolytic agents inhibited fibrinolysis in a dose-dependent manner.

human plasmin [11] = biological target: T1, human plasmin; assay: protease amidolytic inhibition, tight-binding equation

## Ecallantide
[1]
  half-life: ~120 min

## NCCCCCC(=O)O [EACA, ε-aminocaproic acid]
[2]
  G: 2388.0 ± 49.6 dyn/cm^2
[2]; inhibitor 200 μM
  G: 153.25 ± 9.8 dyn/cm^2
  LY30: 0%
  LY60: 0%
  MA: 3.20 ± 0.71 mm
[2]; inhibitor 500 μM
  G: 747.75 ± 14.8 dyn/cm^2
  LY30: 0%
  LY60: 0%
  MA: 13.15 ± 0.64 mm
[2]; inhibitor 1000 μM
  G: 1070.1 ± 35.0 dyn/cm^2
  LY30: 0%
  LY60: 16.8 ± 0.35%
  MA: 16.40 ± 0.28 mm
[2]; inhibitor 3000 μM
  LY30: 0%
  LY60: 0.6 ± 0.04%
  MA: 32.60 ± 0.71 mm
[2]; […] plasmin, 3 mM EACA
  G restored, relative to blood without plasmin: ~50%
  MA restored, relative to blood without plasmin: ~67%
HUVEC [3]
  HUVEC viability (FIG. 4): not significantly different from the untreated cells
[4]
  Fibroblast cell viability (FIG. 5): not significantly different from the untreated cells
HUVEC [5]
  HUVEC cytotoxicity, CellTox green (FIG. 7): only observed in skin fibroblasts
[6]
  Fibroblasts cytotoxicity, CellTox green (FIG. 8): significant toxicity

B1: KD1-WT (other)
chain: DAAQEPTGNNAEICLLPLDYGPCRALLLRYYYDRYTQSCRQFLYGGCEGNANNFYTWEACDDACWRIEKVPKV
notes: also called Wild-type KD1; E. coli expressed KD1-WT (IIa cleavage site); not shown: N-terminal residues left from the IIa (thrombin) cleavage site
Human plasmin [7]
  TEG G, 1 µM inhibitor, whole blood + 1.5 µM plasmin: 79 dyn/cm^2
  TEG G, 2 µM inhibitor, whole blood + 1.5 µM plasmin: 108 dyn/cm^2
  TEG G, 3 µM inhibitor, whole blood + 1.5 µM plasmin: 180 dyn/cm^2
  TEG G, 5 µM inhibitor, whole blood + 1.5 µM plasmin: 818 dyn/cm^2
  TEG G, 7.5 µM inhibitor, whole blood + 1.5 µM plasmin: 820 dyn/cm^2
  TEG LY30, 1 µM inhibitor, whole blood + 1.5 µM plasmin: 100%
  TEG LY30, 2 µM inhibitor, whole blood + 1.5 µM plasmin: 100%
  TEG LY30, 3 µM inhibitor, whole blood + 1.5 µM plasmin: 100%
  TEG LY30, 5 µM inhibitor, whole blood + 1.5 µM plasmin: 6.5%
  TEG LY30, 7.5 µM inhibitor, whole blood + 1.5 µM plasmin: 0%
  TEG LY60, 1 µM inhibitor, whole blood + 1.5 µM plasmin: 100%
  TEG LY60, 2 µM inhibitor, whole blood + 1.5 µM plasmin: 100%
  TEG LY60, 3 µM inhibitor, whole blood + 1.5 µM plasmin: 100%
  TEG LY60, 5 µM inhibitor, whole blood + 1.5 µM plasmin: 22.4%
  TEG LY60, 7.5 µM inhibitor, whole blood + 1.5 µM plasmin: 0%
  TEG MA, 1 µM inhibitor, whole blood + 1.5 µM plasmin: 1.45 mm
  TEG MA, 2 µM inhibitor, whole blood + 1.5 µM plasmin: 2.23 mm
  TEG MA, 3 µM inhibitor, whole blood + 1.5 µM plasmin: 3.49 mm
  TEG MA, 5 µM inhibitor, whole blood + 1.5 µM plasmin: 13.9 mm
  TEG MA, 7.5 µM inhibitor, whole blood + 1.5 µM plasmin: 11.7 mm
Human plasmin [8]
  Ki: 6 nM
Human plasmin [9]
  IC50 (read off the curve): ~9 nM

B2: KD1-L17R-KT (designed binder)
chain: MGSSHHHHHHSSGHIDDDDKNAEICLLPLDYGPCRARLLRYYYDRYTQSCRQFLYGGCEGNANNFYTWEACDDACWRIEK
notes: also called KD1SM; single mutant
Human plasmin [7]
  TEG G, 1 µM inhibitor, whole blood + 1.5 µM plasmin: 329 dyn/cm^2
  TEG G, 2 µM inhibitor, whole blood + 1.5 µM plasmin: 599 dyn/cm^2
  TEG G, 3 µM inhibitor, whole blood + 1.5 µM plasmin: 683 dyn/cm^2
  TEG G, 5 µM inhibitor, whole blood + 1.5 µM plasmin: 2320 dyn/cm^2
  TEG G, 7.5 µM inhibitor, whole blood + 1.5 µM plasmin: 2530 dyn/cm^2
  TEG LY30, 1 µM inhibitor, whole blood + 1.5 µM plasmin: 10.1%
  TEG LY30, 2 µM inhibitor, whole blood + 1.5 µM plasmin: 0%
  TEG LY30, 3 µM inhibitor, whole blood + 1.5 µM plasmin: 0%
  TEG LY30, 5 µM inhibitor, whole blood + 1.5 µM plasmin: 0%
  TEG LY30, 7.5 µM inhibitor, whole blood + 1.5 µM plasmin: 0%
  TEG LY60, 1 µM inhibitor, whole blood + 1.5 µM plasmin: 28.4%
  TEG LY60, 2 µM inhibitor, whole blood + 1.5 µM plasmin: 4.95%
  TEG LY60, 3 µM inhibitor, whole blood + 1.5 µM plasmin: 19.9%
  TEG LY60, 5 µM inhibitor, whole blood + 1.5 µM plasmin: 12.3%
  TEG LY60, 7.5 µM inhibitor, whole blood + 1.5 µM plasmin: 5%
  TEG MA, 1 µM inhibitor, whole blood + 1.5 µM plasmin: 6.45 mm
  TEG MA, 2 µM inhibitor, whole blood + 1.5 µM plasmin: 11.8 mm
  TEG MA, 3 µM inhibitor, whole blood + 1.5 µM plasmin: 12.3 mm
  TEG MA, 5 µM inhibitor, whole blood + 1.5 µM plasmin: 31.4 mm
  TEG MA, 7.5 µM inhibitor, whole blood + 1.5 µM plasmin: 33.9 mm
Plasma kallikrein (pKLK)
  Ki: > 3000 nM
Human FXIa
  Ki: > 3000 nM
FVIIa/sTF
  Ki: > 3000 nM
FXa
  Ki: > 3000 nM
[10]; 0.5 μM inhibitor + tPA
  Max OD405: 1.48 ± 0.11
  OD405 at 60 min: 0.85 ± 0.14
[10]; 0.5 μM inhibitor + tPA, 7 ± 1 without inhibitor
  Fibrinolysis midpoint time: 10 ± 0.76 min
[10]; 1.0 μM inhibitor + tPA
  Fibrinolysis midpoint time: 13 ± 0.5 min
  Max OD405: 1.56 ± 0.10
  OD405 at 60 min: 0.87 ± 0.11
[10]; 3.0 μM inhibitor + tPA
  Fibrinolysis midpoint time: 31 ± 1.75 min
  Max OD405: 1.74 ± 0.05
  OD405 at 60 min: 0.80 ± 0.13
[10]; 4.0 μM inhibitor + tPA
  Fibrinolysis midpoint time: 43 ± 1^ minutes
  Max OD405: 1.62 ± 0.11
  OD405 at 60 min: 0.92 ± 0.05
[10]; 5.0 μM inhibitor + tPA
  Fibrinolysis midpoint time: 55 ± 1.5 min
  Max OD405: 1.69 ± 0.08
  OD405 at 60 min: 1.13 ± 0.06
Human plasmin [11]
  Ki: 0.9 nM
Human plasmin [8]
  Ki: 0.9 nM
Human plasmin [9]
  IC50 (read off the curve): ~3 nM

B3: KD1-Y11T/L17R-KT (E. Coli) (designed binder)
chain: MGSSHHHHHHSSGHIDDDDKNAEICLLPLDTGPCRARLLRYYYDRYTQSCRQFLYGGCEGNANNFYTWEACDDACWRIEK
notes: also called KD1DM; E. coli expressed KD1-Y11T/L17R-KT
Human plasmin [8]
  Ki: 0.59 nM
Human plasmin [9]
  IC50 (read off the curve): 2 to 3 nM
